Laboratory results taken from patent US20210340181A1.

Columns and labels:
[1] = target: T1, αvβ6 integrin (purified), P06756; experiment: competitive ELISA vs BtLAP
T1 chain 1: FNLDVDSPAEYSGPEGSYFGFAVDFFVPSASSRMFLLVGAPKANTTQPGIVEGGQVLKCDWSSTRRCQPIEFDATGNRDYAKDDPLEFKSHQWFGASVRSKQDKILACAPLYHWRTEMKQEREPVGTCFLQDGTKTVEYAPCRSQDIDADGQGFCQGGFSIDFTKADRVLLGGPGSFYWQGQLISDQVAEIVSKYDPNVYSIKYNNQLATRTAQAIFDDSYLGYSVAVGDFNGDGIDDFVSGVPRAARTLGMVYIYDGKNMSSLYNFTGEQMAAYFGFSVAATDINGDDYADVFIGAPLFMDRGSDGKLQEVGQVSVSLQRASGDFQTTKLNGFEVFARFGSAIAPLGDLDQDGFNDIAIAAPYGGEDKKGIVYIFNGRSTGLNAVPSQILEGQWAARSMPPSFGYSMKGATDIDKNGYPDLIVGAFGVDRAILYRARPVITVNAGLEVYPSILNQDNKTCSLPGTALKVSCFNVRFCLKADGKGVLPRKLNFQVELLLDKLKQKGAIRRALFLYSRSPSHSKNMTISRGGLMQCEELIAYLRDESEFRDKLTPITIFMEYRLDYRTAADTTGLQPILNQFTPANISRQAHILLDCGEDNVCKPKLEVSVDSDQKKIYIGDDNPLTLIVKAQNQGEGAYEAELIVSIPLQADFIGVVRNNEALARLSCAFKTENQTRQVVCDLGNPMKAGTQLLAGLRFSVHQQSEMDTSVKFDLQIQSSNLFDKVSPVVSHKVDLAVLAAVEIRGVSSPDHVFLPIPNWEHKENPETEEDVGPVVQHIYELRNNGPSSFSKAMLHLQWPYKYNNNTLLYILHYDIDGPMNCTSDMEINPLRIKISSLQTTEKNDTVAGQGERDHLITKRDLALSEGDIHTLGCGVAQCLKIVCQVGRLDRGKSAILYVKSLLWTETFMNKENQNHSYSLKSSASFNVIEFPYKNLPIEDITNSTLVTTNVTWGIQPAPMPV
T1 chain 2: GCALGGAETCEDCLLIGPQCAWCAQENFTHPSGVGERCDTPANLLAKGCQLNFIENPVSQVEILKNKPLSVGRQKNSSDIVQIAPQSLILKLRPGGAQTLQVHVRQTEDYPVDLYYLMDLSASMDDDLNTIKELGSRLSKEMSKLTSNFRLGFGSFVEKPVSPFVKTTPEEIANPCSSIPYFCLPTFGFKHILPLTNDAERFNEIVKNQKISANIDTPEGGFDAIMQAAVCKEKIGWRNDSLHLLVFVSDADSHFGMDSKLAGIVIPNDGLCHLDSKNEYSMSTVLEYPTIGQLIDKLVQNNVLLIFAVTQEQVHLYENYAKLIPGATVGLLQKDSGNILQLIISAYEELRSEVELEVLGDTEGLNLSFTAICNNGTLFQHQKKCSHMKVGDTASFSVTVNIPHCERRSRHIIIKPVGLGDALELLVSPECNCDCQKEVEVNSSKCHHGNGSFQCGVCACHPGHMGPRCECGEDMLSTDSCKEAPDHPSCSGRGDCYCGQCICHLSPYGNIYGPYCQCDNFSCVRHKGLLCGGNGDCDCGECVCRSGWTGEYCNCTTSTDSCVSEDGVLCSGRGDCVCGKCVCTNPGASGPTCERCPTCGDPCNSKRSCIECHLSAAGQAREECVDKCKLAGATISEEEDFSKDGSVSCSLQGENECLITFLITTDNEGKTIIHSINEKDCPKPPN

[2] = target: T2, αvβ6 integrin on DX3puroβ6 (αvβ6+) cells (human), P06756; experiment: 18F peptide cell binding, αvβ6+ over αvβ6- cells
T2 chain 1: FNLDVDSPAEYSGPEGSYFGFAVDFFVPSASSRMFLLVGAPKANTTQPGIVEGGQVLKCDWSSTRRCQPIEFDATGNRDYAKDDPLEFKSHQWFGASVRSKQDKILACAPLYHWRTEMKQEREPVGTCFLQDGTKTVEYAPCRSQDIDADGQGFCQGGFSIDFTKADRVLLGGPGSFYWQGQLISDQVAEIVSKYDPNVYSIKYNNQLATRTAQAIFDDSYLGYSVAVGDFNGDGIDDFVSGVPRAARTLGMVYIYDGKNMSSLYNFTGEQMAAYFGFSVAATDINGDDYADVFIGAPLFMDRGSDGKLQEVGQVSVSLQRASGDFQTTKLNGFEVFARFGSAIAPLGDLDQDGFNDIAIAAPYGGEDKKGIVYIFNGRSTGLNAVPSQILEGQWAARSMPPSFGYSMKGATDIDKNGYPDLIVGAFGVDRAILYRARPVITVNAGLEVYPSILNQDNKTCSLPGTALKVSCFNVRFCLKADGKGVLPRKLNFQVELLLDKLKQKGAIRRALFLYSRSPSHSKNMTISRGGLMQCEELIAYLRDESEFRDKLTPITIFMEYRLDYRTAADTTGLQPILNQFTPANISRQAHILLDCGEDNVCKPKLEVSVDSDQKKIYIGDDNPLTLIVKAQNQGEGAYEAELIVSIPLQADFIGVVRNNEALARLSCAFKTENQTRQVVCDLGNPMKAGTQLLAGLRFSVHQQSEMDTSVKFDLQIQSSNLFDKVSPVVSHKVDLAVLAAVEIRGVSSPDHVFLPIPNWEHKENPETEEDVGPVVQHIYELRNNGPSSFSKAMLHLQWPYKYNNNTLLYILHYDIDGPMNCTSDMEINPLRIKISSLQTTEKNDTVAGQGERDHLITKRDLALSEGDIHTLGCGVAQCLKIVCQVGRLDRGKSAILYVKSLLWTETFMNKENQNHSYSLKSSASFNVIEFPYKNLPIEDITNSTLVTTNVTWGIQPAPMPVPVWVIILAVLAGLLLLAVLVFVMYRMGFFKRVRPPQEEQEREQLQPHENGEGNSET
T2 chain 2: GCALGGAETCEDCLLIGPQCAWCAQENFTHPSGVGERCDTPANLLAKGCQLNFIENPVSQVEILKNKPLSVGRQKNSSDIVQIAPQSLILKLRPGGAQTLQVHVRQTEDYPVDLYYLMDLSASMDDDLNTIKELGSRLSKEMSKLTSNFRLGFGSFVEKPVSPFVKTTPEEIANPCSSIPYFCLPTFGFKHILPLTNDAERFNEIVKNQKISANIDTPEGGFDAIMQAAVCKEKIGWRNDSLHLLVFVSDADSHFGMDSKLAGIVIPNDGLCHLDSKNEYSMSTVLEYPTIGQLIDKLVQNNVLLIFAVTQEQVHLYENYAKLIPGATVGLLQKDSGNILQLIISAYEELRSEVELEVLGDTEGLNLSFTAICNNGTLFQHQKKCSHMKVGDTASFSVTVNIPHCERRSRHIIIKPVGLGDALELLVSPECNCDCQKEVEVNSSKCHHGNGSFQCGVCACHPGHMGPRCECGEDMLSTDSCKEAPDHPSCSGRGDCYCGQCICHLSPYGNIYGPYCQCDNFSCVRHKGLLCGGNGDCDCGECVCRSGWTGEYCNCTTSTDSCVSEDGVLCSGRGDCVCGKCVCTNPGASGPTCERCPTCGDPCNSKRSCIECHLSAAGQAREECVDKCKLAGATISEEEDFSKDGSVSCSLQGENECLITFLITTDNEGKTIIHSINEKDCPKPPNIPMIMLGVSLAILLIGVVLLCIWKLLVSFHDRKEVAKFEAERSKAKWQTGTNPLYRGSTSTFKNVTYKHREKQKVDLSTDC

[3] = target: T2, αvβ6 integrin on DX3puroβ6 (αvβ6+) …; experiment: 18F peptide binding to DX3puroβ6 (αvβ6+) cells, 1 h, gamma counting
[4] = target: T3, αvβ8 integrin (purified), P06756; experiment: competitive ELISA vs BtLAP
T3 chain 1: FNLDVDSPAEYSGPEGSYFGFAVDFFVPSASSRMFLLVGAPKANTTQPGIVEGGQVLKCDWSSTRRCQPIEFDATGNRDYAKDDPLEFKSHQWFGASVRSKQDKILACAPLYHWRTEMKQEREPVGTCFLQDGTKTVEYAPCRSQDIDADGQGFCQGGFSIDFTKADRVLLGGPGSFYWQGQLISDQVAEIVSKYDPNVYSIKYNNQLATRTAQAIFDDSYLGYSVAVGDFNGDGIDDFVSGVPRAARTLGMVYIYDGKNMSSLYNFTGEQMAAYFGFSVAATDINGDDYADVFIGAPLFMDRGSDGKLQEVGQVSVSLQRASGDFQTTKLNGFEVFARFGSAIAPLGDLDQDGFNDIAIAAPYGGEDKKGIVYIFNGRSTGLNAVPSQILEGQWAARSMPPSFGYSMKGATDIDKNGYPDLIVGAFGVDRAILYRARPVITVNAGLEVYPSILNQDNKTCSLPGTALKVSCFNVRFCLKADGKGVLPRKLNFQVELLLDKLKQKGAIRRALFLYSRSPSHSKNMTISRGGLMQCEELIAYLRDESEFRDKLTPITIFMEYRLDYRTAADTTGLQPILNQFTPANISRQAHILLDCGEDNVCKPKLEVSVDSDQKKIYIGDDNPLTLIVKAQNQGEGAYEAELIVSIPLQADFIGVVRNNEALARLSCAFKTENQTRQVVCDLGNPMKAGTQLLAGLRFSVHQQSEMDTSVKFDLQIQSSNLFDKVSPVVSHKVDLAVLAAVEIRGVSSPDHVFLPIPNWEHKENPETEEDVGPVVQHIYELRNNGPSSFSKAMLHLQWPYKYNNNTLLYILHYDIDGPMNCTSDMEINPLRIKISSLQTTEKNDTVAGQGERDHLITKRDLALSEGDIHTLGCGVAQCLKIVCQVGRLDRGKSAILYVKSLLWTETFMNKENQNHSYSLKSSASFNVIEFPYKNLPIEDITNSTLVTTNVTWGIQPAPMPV
T3 chain 2: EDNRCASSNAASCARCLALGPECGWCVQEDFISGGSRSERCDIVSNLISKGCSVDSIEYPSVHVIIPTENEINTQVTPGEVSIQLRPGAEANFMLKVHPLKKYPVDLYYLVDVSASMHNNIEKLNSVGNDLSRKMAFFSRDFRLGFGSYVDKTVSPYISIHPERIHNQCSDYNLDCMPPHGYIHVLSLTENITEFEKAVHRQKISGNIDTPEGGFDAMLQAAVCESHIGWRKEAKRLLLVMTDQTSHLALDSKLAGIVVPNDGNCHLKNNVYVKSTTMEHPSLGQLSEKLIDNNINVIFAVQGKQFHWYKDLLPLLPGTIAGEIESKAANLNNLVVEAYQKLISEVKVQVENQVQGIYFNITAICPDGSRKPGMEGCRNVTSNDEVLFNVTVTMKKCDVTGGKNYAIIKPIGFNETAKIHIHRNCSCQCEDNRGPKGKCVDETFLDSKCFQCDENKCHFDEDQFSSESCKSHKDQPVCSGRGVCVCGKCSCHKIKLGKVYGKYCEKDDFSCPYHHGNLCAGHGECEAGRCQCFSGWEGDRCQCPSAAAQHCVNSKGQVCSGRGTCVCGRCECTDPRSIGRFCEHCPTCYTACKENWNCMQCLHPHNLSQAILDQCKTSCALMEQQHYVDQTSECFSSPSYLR

GRGDLGRL (modifications not checked) [SFLAP3-8mer, FB-GRGDLGRL]
IC50 [1]: 89 nM | DX3puroβ6 (αvβ6+)/DX3puro (αvβ6-) selectivity ratio [2]: 1.4

RSDLTPLF (modifications not checked) [KL3, FB-RSDLTPLF]
IC50 [1]: 1700 nM | DX3puroβ6 (αvβ6+)/DX3puro (αvβ6-) selectivity ratio [2]: 0.9 | % binding to cells [3]: 0.7%

RGDLQVLAQKVART (modifications not checked) [A20-14mer, FB-…]
DX3puroβ6 (αvβ6+)/DX3puro (αvβ6-) selectivity ratio [2]: 8.4

VGDLTYLKK (modifications not checked) [P1, …(FB)]
IC50 [1]: 450 nM | IC50 [4]: 5300 nM | DX3puroβ6 (αvβ6+)/DX3puro (αvβ6-) selectivity ratio [2]: 1.1 | % binding to cells [3]: 12.8%

RGDLQVLA (modifications not checked) [A20-8mer, FB-RGDLQVLA]
DX3puroβ6 (αvβ6+)/DX3puro (αvβ6-) selectivity ratio [2]: 7.8

RTDLDSLRT (modifications not checked) [RTD-9mer, FB-…]
IC50 [1]: 22 nM | DX3puroβ6 (αvβ6+)/DX3puro (αvβ6-) selectivity ratio [2]: 1.7

RGDLADLRK (modifications not checked) [P3, …(FB)]
IC50 [1]: 420 nM | IC50 [4]: 200 nM | DX3puroβ6 (αvβ6+)/DX3puro (αvβ6-) selectivity ratio [2]: 1.4 | % binding to cells [3]: 10.8%
